Measured values published in patent US20090111745A1.
Like-named read-outs stand apart in the source and are kept apart here.

What was measured:
[1] = biological target: human serum albumin (human) (UniProt P02768); test: sandwich ELISA, HSA coated at 10 µg/ml, control at 1 µM, detection with anti-FITC antibody
[2] = biological target: interleukin-1 type 1 receptor (human) (UniProt P14778); test: cell-based or functional assay
[3] = biological target: human serum albumin (human) (UniProt P02768)

Sequence of interleukin-1 type 1 receptor (human) (P14778 18-569): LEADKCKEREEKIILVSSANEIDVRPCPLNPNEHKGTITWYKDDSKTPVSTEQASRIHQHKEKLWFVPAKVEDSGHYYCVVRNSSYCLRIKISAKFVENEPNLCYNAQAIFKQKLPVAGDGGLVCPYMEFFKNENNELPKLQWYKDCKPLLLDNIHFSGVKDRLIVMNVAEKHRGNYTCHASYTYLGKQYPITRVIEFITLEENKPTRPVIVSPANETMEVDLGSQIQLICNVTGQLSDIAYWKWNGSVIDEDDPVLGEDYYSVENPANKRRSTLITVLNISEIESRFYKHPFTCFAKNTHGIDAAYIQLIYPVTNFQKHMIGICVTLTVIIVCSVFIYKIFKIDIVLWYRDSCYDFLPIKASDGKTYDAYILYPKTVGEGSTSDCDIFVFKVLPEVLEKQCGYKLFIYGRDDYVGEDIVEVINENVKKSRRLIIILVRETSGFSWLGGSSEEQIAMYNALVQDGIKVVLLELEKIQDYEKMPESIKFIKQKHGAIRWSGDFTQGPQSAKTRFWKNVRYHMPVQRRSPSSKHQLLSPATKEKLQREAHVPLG
Sequence of recombinant human IL-1ra (R&D systems) (P18510 other isoform, or with tags, fused parts or gaps): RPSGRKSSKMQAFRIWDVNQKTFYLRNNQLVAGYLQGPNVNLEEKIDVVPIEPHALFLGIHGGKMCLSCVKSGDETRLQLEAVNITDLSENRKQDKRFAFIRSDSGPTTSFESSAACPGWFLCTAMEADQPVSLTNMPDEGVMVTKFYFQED
Sequence of uncoupled saporin (enzyme) (P20656 25-277): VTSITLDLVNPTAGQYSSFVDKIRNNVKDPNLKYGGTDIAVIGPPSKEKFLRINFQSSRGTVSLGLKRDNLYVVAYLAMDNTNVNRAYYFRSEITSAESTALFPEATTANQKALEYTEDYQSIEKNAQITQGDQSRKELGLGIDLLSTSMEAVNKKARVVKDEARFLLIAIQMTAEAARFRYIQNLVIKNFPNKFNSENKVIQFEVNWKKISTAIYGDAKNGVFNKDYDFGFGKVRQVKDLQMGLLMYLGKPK

Q: How did the OD600 [1] turn out when control FITC coupled antibody was run?
A: 0.049 OD600

Q: How did the ND50 (neutralizing dose 50), IL-1-induced IL-8 secretion by MRC-5 cells [2] turn out when “recombinant human IL-1ra (R&D systems) (from UniProt P18510 26-176) (ligand)” was run?
A: 0.5 nM

Q: For uncoupled saporin (enzyme), which OD600 [3] is on record?
A: 0.079 OD600
